Measured values published in paper PMC6041257.

Biological target: SUFU (UniProt Q9UMX1)
Experiment: co-immunoprecipitation (assumed)
Conditions: reference: GLI1-WT; sites S201,S204,S243

In the case of “GLI1 (from UniProt P08151) GLI1-S201/204/243A”, the “binding against the reference” value is reported as “weaker”.
